Measurements taken from article PMC2475631.
Numbering of substitutions follows the chain as printed.

Columns and labels:
Experiment in all cases: EMSA
Myogenin;E47 [1] = target: T1, Myogenin;E47 (Rattus norvegicus;Mus musculus, UniProt P20428;P15806-2 1-287;1-648, |)
T1 sequence 1: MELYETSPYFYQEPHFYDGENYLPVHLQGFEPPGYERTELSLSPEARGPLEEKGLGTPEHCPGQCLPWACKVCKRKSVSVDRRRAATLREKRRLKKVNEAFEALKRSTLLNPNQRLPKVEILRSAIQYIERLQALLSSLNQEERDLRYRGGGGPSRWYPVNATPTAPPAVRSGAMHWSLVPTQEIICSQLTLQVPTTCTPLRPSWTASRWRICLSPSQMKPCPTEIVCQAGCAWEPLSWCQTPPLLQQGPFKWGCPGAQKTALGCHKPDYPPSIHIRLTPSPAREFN
T1 sequence 2: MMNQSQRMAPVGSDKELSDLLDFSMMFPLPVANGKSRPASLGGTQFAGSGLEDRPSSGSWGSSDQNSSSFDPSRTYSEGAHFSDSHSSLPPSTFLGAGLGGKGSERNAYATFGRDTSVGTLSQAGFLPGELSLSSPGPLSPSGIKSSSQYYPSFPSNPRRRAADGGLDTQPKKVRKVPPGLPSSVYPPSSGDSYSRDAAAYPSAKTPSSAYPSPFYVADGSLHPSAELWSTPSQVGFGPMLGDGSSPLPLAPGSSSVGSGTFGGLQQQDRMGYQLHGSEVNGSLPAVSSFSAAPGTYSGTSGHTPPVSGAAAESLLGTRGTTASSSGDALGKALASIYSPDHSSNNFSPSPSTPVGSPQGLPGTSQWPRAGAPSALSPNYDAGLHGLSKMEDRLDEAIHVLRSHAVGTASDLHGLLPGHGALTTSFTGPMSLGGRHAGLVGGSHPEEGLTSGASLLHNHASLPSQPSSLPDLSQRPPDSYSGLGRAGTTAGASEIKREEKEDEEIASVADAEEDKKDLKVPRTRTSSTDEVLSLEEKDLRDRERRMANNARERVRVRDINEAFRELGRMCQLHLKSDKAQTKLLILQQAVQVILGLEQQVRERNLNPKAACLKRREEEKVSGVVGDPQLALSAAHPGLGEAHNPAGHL

MRF4;E47 = target: T2, MRF4;E47 (Rattus norvegicus;Mus musculus, UniProt P19335;P15806-2 1-242;1-648, |)
T2 sequence 1: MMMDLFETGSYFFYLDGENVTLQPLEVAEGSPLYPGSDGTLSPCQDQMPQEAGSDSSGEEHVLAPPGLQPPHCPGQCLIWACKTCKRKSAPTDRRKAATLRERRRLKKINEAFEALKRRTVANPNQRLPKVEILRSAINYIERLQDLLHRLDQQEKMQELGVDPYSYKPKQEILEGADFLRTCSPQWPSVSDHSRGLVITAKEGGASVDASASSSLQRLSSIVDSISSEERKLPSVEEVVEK
T2 sequence 2: T1 sequence 2

Myogenin = target: T3, Myogenin (Rattus norvegicus, UniProt P20428 1-287)
T3 sequence: T1 sequence 1

MyoD = MyoD (Mus musculus, UniProt P10085 1-318)
MRF4 = target: T4, MRF4 (Rattus norvegicus, UniProt P19335 1-242)
T4 sequence: T2 sequence 1

MyoD;E47 [2] = target: T5, MyoD;E47 (Mus musculus;Mus musculus, UniProt P10085;P15806-2 1-318;1-648, |)
Myogenin/MyoDb chimera = target: T6, Myogenin/MyoDb chimera (Rattus norvegicus; Mus musculus basic …, UniProt P20428 1-73+P10085:102-121+94-287, internal_change)
T6 sequence: T1 sequence 1 with S77T, V78T, S79N, V80A, R84K, L88M, K91R

MyoD/Myogeninb chimera = MyoD/Myogeninb chimera (Mus musculus; Rattus norvegicus basic …, UniProt P10085 1-101+P20428:74-93+122-318, internal_change)
mut-Myogenin = target: T7, mut-Myogenin (Rattus norvegicus, UniProt P20428 1-287, R84K;K91R)
T7 sequence: T1 sequence 1 with R84K, K91R

Myogenin;E47 [3] = target: T1, Myogenin;E47; remark: listed apart in the source
MyoD;E47 [4] = target: T5, MyoD;E47; remark: listed apart in the source

B1: E-box DNA (dsDNA)
DNA 1: TCGATCCCCCAACACCTGCTGCCTGA
DNA 2: TCAGGCAGCAGGTGTTGGGGGACGA
Kd (Myogenin;E47 [1]): 0.2 ± 0.1 nM
Kd (MRF4;E47): 0.2 ± 0.1 nM
Kd (Myogenin): 25.4 ± 11 nM
Kd (MyoD): 91.8 ± 1.6 nM
Kd (MRF4): 21.3 ± 11 nM
Kd (MyoD;E47 [2]): 1.7 ± 0.6 nM

B2: G'2 integrin DNA (structured_DNA)
DNA: CATGGGGGCGGGAAGGGGCGGGGTCT
Kd (Myogenin;E47 [1]): 8.5 ± 2 nM
Kd (Myogenin/MyoDb chimera): 7.1 ± 1.9 nM
Kd (MRF4;E47): 19.5 ± 2.7 nM
Kd (MyoD/Myogeninb chimera): 6 ± 3.1 nM
Kd (Myogenin): 30 ± 8 nM
Kd (MyoD): 4.4 ± 2.5 nM
Kd (MRF4): 5.3 ± 1.3 nM
Kd (MyoD;E47 [2]): 11.2 ± 4.3 nM
binding result (mut-Myogenin): binds

B3: G'2 sMtCK DNA (structured_DNA)
DNA: CTGAGGAGGGGCTGGAGGGACCAC
binding result (MRF4): binds
binding signal (Myogenin;E47 [3]): 128 fold weaker than E-box
binding signal (MyoD;E47 [4]): 15 fold weaker than E-box
